# B1: TCN-552 (5249_I23) (antibody, V domains shown)
# VH: QVQVVQSGAEVKKPGSSVRVSCQASGGTFMNYAIIWVRRAPGQGLEWMGGIIPVFPTPNYAQMFQGRVTISTDESRSTSFLELTNLRYEDTAVYYCARRIYHGGNSGFDFWGQGTLVTVSS
# VL: EIVLTQSPATLSLSPGERATLSCRASQSVGNYLAWYQQKPGQAPRLLIYDSSNRAPGIPARFSGSGSGTDFTLTISSLAPEDFAVYYCQQRSKWPPMYSFGHGTKLEIK
# B2: TCN-551 (5243_D01) (antibody, V domains shown)
# VH: EVQLVQSGSEVKKPGESLKISCKGSGYSFSNYWIGWVRHMPGKGLEWMGIIYPGDSDTRYSPSFQGQVTMSADKSSSTVYLQWSSLKASDTAIYYCARRGGHSFGYGSGGDTHSEFDSWGQGTLVTVSS
# VL: QSVLTQSPSVSAAPGQKVTISCSGSDSNIGDYFVCWYQHLPGKPPQLLIYENNKRPSGIPDRFSGSKSGTSATLGITGIQTGDEADYYCATWDGSLSAWVFGGGTKLTVL
# B3: TCN-543 (5081_G23) (antibody, V domains shown)
# VH: QVHLVQSGAEVRKPGDSVKVSCKTSGYTFSTYPVAWVRQVPGQGLEWMGWISTYNGNTNFAQNFQGRVTLTTDTTTNTAYMEVRSLKFDDTAVYYCARVEGSYRDFWNNQNRFDPWGQGTLVTVSS
# VL: SYVLTQPPSVSVAPGQTARISCGGSNIGGKSVHWYQQKPGQAPVLVVYDDSGRPSGIPERFSGSNSGDTATLTISRVEAGDEADYFCQVWDNFGGVFGTGTKVTVL
# B4: TCN-538 (3206_O17) (antibody, V domains shown)
# VH: QITLKESGPTLVKPTQTLTLTCVFSGFSLSITGVRVGWIRQPPGKALEWLALISWDDEKHYSPSLQSRLTITKDTSKNQVVLTMTNLDPVDTATYYCARSTDRGHVLRYFGWMLPGDAFDVWGQGTMVTVSS
# VL: DIVMTQSPDFLPVSLGERATINCKSSQRVLYSSNNKNYLAWYQLKPGQPPKLIIYWASTRESGVPDRFSGSGSGTEFTLTISSLQAEDVAVYYCQQYYSRPYTFGQGTKLEIK
# B5: TCN-542 (5079_A16) (antibody, V domains shown)
# VH: QVQLQESGPGLVKPSQTLSLTCTVSGGSISSGNYYWNWVRQHPGKGLEWIGYIYYRGSTFYNPSLKSRVTISIDTSKNQFSLRLSSVTAADTAVYYCAKDTRSSLDNYQYGMDVWGQGTTVTVSS
# VL: QTVVTQEPSLTVSPGGTVTLTCASSTGAVTSSYFPNWFQQKPGQAPRPLIYSTTIRHSWTPARFSGSLLGGKAALTLSGVQPEDEADYYCLLYSGGDPVAFGGGTKLTVL
# B6: TCN-537 (3194_D21) (antibody, V domains shown)
# VH: QVQLQQWGSGLLKPSETLSLTCAVYGGSFRDDYWTWIRQPPGKGLEWIGEINHSGRTNYNPSLKSRVTISVDTSLKQFSLKVISVTAADTAVYYCARGTSHVSRYFDWLPPTNWFDPWGQGTQVTVSS
# VL: DIVLTQSPGTLSLSPGERATLSCRASQSVSSSYLAWYQQKPGQAPRLVMYGAATRATGIPDRFSGSGSGPDFTLTISRLEPEDFAMYYCQQYGNSPITFGQGTRLEIK
# B7: TCN-545 (5082_I15) (antibody, V domains shown)
# VH: QVQLQQWGAGLLKPSETLSLSCAVFGGSFSDYYWTWIRQPPGKGLEWIGEIKHSGRTNYNPSLESRVTISVDTSKNQFSLKLSSVTAADTAIYYCARGTDPDTEGYCRSGSCSAFDFWGQGTLVTVSS
# VL: EIVLTQSPGTLSLSPGERATLSCRASHFVNYRSLAWYQQTPGQVPRLLIYGASTRATGIPDRFSGSGSGTDFTLTISRLEPEDFAVYFCQQYGGSPRYTFGQGTRLEIK
# B8: TCN-546 (5089_L08) (antibody, V domains shown)
# VH: QVQLQQWGAGLLKPSETLSLTCGVYGGSLSDYYWSWIRQPPGKGLEWIGEINHSGGTNYNPSLKRRVTISVDTSKKQFSLKMNSVTAADTAVYYCARGTDPDTEVYCRAGNCAAFDFWGQGTLVTVSS
# VL: EIVLTQSPGTLSLSPGERATLSCRASHFVIGRAVAWYQQKPGQAPRLLIYGASSRATGIPDRFSGSGSGTDFTLTISRLETEDFAVFYCQHYGSSPRYAFGQGTKLEIK
# B9: TCN-553 (5261_C18) (antibody, V domains shown)
# VH: QVQVVQSGTEVKKPGSSVKVSCQTSGGRFMSYAITWVRQAPGQGLEWMGGIVPVFGTANYAQKFQGRVTITTDDSTRTAYMELSSLRSEDTAVYYCGFRYGSGYGFDSWGQGTLVTVSS
# VL: EIVLTQSPGTLSLSPGERATLSCRASQSVSSSYLAWYQKKPGQAPRLLIYGASTRATGIPDRFTGSGSGTDFTLSISRLEPEDFAVYYCQHFGTSVFTFGGGTKVEIK
# B10: TCN-558 (5248_H10b) (antibody, V domains shown)
# VH: QVQLVQSGSEVKKPGTSVKVSCTASGSVFTNYGISWVRQAPGQGLEWMGGIIPLFGAAKYAQKFQGRVTITADESTKTVYMELSRLTSKDTAIYFCAKAPRVYEYYFDQWGQGTPVTVSS
# VL: EIVMTQFPATLSVSPGERVTLSCRASQSVSNNLAWYQQKPGQPPRLLIYDASTRATGVPAKFSGTGSGTEFTLSISSLQSEDFAVYYCQQYHNWPPSYSFGLGTKLEIK
# B11: TCN-555 (5246_L16) (antibody, V domains shown)
# VH: QVQLVQSGAEVKRPGSSVKVSCTASGGIFRKNAISWVRQAPGQGLEWMGGIIAVFNTANYAQKFQNRVKITADESGNTAYMELSSLTSDDTAVYYCASHPKYFYGSGSYPDFWGQGTLVTVSS
# VL: QSALTQPRSVSGSPGQSITISCTGGSSDIGASNSVSWYQQHPGKAPKLVIFDVTERPSGVPHRFSGSKSGNTASLTVSGLQPDDEADYFCCAYGGKYLVVFGGGTKVTVL
# B12: TCN-540 (5060_F05) (antibody, V domains shown)
# VH: QVQLVQSGGGVVQPGRSLRLSCAASGFTFSSYAMHWVRQAPGKGLEWVAIISYDGNDQYYTDSVKGRFTISRDSSKVYLQMHRLRPEDTAVYYCAKEFETSGYFHGSFDYWGQGILVTVSS
# VL: QSALTQPASVSGSPGQSITISCTGTSSDVGGYNYVSWYQQHPGKAPKLLIYEVTNWPSGVSNRFSGSKSGNTASLTISGLQAEDEADYYCSSYAGSSTWVFGGGTRVTVL
# B13: TCN-560 (5084_P10) (antibody, V domains shown)
# VH: EVQLVESGGGLVQPGGSLRLSCAASGFIFRNYWMSWVRQAPGKGLEWVANIKQDGREKYYVDSLRGRVNISRDNAENSLYLHMNSLRVEDTAVYFCARARMVVVTGDGFDVWGHGTMVTVSS
# VL: DIQMTQSPSSLSASVGDRVTITCRASQNIKRYFNWYQQKPGKAPKLLIYAASNLENGVPSRFSGSGSGTDFTLTISSLQPEDFATYYCQQSFSKSWTFGQGTNVDIK
# B14: TCN-556 (5089_K12) (antibody, V domains shown)
# VH: QVQLVQSGAEVKKPGASVKVSCKASGYTFIGYDMHWVRQAPGQGLEWMGWINAKRGGTNYAQKFQGRVTMTRDTSISTAYMELNSLRSDDTAVYYCARGVGSRTTIFGVLNPEFDYWGQGTLVTVSS
# VL: QSALTQPPSASGSPGQSVTISCTGSSSDVGGYDYVSWYQQHPGKAPKLLIYEVTKRPSGVPDRFSGSKSGNTASLTVSGLQAEDEADYYCSSYAGNYNHVFGPGTKVTVL
# B15: TCN-560 (5084_P10) (antibody, V domains shown)
# VH: B13 VH
# VL: B13 VL
# B16: TCN-556 (5089_K12) (antibody, V domains shown)
# VH: B14 VH
# VL: B14 VL
# Biological target: hemagglutinin (HA) of live influenza A/Solomon Islands/3/06 (H1N1) virus (influenza A virus A/Solomon …)
# Test: cell-based or functional assay
row,Binder,% Neutralization
1,B1,0%
2,B2,99%
3,B3,98%
4,B4,21%
5,B5,99%
6,B6,0%
7,B7,88%
8,B8,98%
9,B9,44%
10,B10,84%
11,B11,49%
12,B12,3%

# Biological target: hemagglutinin (HA) of live influenza A/California/4/09 (H1N1) virus (influenza A virus A/California/04/2009 …)
# Test: cell-based or functional assay
row,Binder,% Neutralization
1,B5,15%
2,B8,0%

# Biological target: hemagglutinin (HA) of live influenza A/Wisconsin/67/05 (H3N2) virus (influenza A virus A/Wisconsin/67/2005 …)
# Test: cell-based or functional assay
row,Binder,% Neutralization
1,B1,14%
2,B2,6%
3,B3,73%
4,B4,0%
5,B5,8%
6,B6,0%
7,B7,99%
8,B8,100%
9,B9,5%
10,B10,7%
11,B11,5%
12,B12,98%

# Biological target: recombinant soluble homotrimeric HA of A/northern shoveler/California/HKWF115/2007 (H6N1) (Influenza A virus A/northern …)
# Test: HA microarray, BCC supernatant
row,Binder,Trimeric HA Binding RLU
1,B13,42300 RLU
2,B14,11900 RLU

# Biological target: recombinant soluble homotrimeric HA of A/duck/Yangzhou/02/2005 (H8N4) (Influenza A virus …)
# Test: HA microarray, BCC supernatant
row,Binder,Trimeric HA Binding RLU
1,B13,44700 RLU
2,B14,16900 RLU

# Biological target: recombinant soluble homotrimeric HA, A/Anhui/1/05 (H5N1) (influenza A virus A/Anhui/1/2005 (H5N1))
# Test: microarray, trimeric HA, transfection supernatant
row,Binder,Trimeric HA Binding RLU
1,B15,18600 RLU
2,B16,13800 RLU

# Biological target: recombinant soluble homotrimeric HA, A/chicken/Vietnam/NCVD-016/08 (H5N1) (influenza A virus …)
# Test: microarray, trimeric HA, transfection supernatant
row,Binder,Trimeric HA Binding RLU
1,B15,18200 RLU
2,B16,22700 RLU

# Biological target: recombinant soluble homotrimeric HA, A/Hong Kong/156/97 (H5N1) (influenza A virus A/Hong Kong/156/97 …)
# Test: microarray, trimeric HA, transfection supernatant
row,Binder,Trimeric HA Binding RLU
1,B15,29300 RLU
2,B16,24600 RLU

# Biological target: recombinant soluble homotrimeric HA, A/northern shoveler/California/HKWF115/2007 (H6N1) (influenza A virus A/northern …)
# Test: microarray, trimeric HA, transfection supernatant
row,Binder,Trimeric HA Binding RLU
1,B15,35900 RLU
2,B16,34800 RLU

# Biological target: recombinant soluble homotrimeric HA, A/Netherlands/219/03 (H7N7) (influenza A virus A/Netherlands/219/03 …)
# Test: microarray, trimeric HA, transfection supernatant
row,Binder,Trimeric HA Binding RLU
1,B15,32100 RLU
2,B16,43600 RLU

# Biological target: recombinant soluble homotrimeric HA, A/duck/Yangzhou/02/2005 (H8N4) (influenza A virus …)
# Test: microarray, trimeric HA, transfection supernatant
row,Binder,Trimeric HA Binding RLU
1,B15,27900 RLU
2,B16,22400 RLU

# Source: patent US20150104459A1 (published 2015)
